In article PMC3868556:

Key:
[1] = test system: T1, ComPsub (Neisseria subflava), UPI00280B593C; test: EMSA; conditions: SPR (ProteOn XPR36, NLC chip): 25 mM HEPES pH 7.9, 150 mM NaCl, 2.5 mM MgCl2, 0.05% Tween-20, 25 C, 30 uM ComP; EMSA: native 10% acrylamide, LightShift kit …
T1 sequence: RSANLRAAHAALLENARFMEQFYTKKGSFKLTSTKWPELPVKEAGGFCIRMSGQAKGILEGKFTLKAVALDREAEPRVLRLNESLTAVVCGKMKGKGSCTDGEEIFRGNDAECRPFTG

[2] = test system: ComP (Neisseria meningitidis 8013 (serogroup C clinical isolate)); test: SPR; conditions: SPR (ProteOn XPR36, NLC chip): 25 mM HEPES pH 7.9, 150 mM NaCl, 2.5 mM MgCl2, 0.05% Tween-20, 25 C, 30 uM ComP; EMSA: native 10% acrylamide, LightShift kit …

Row | Sequence | binding [1] | binding signal [2]
1 | GTATGGGCGGCTCGGCGTTTGGTCAGGTGTACAACAATATGAGCGGCGACGCGCCCGATTTGGACGATACAGGCCGTCTGAAAGACTTTTACGGCGTGATTCAACAGCTTGTCGCCGAAGACAAACTCTTGGCGTATCACGACCGCAGCGAC (double strand) [purL fragment with one DUSvar1] | binds | 
2 | TGACCATGCCGTCTGAACAAAC (double strand) [DUS] |  | 100 % of DUS Req
